# Measurements from patent publication US20240424107.
# Test system: IgG Fc dimer protein, P01857-1
# Settings: printed ggAGG[2'-F-rU]Gc[2'-F-rU]ccgaaaGgaa[2'-F-rC][2'-F-rU]cc (lowercase DNA, uppercase RNA); about 10 oxanine nucleotides added at 3' end; at least one aptamer per Fc dimer, one or two observed; HEPES pH 8.4, Mg, K, 37 C, 1 day
sequence,measurement,value
GGAGGTGCTCCGAAAGGAACTCC [Fc RNA aptamer Apt8-2-oxanine],activity (% conjugation),> 98
